Biological target: T1, B2 C-9ASM (pAD-GAL4 fusion, yeast two-hybrid prey) (flock house virus)
T1 construct: Carries 9 alanine substitutions at the C-terminus; also called FHV B2 c-9ASM
Assay: yeast two-hybrid (Table 1: colony -, β-GAL White)

B1: PAZ domain of Arabidopsis Dicer-like protein 1 (DCL1) (pBD-GAL4 fusion, yeast two-hybrid bait) (other)
chain: MKLLSSIEQACDICRLKKLKCSKEKPKCAKCLKNNWECRYSPKTKRSPLTRAHLTEVESRLERLEQLFLLIFPREDLDMILKMDSLQDIKALLTGLFVQDNVNKDAVTDRLASVETDMPLTLRQHRISATSSSEESSNKGQRQLTVSEVEEDLSKGKLMMADGCMVAEDLIGKIVTAAHSGKRFYVDSICYDMSAETSFPRKEGYLGPLEYNTYADYYKQKYGVDLNCKQQPLIKGRGVSYCKNLLSPRFEQSGESETVLDKTYYVFLPPELCVVHP
notes: domain: BD;domain: PAZ domain; PAZ domain amplified by PCR and inserted into SalI and PstI digested pBD-GAL4 cam; also called DCL1-PAZ; PAZ domain of DCL1
**Q.** Does B1 bind?
**A.** no binding

— patent US20160040133A1 (published 2016)
